From the RNAGym collection of RNA variant scans (doi:10.7554/elife.80360)

B1: HDV Ribozyme (parent)
chain: GGCCGGCAUGGUCCCAGCCUCCUCGCUGGCGCCGGCUGGGCAACAUUCCGAGGGGACCGUCCCCUCGGUAAUGGCGAAUGGGACCCA

Variants of: B1
Assay: self-cleavage, relative activity (ratio to wild type); higher = more cleavage; co-transcriptional

Point of comparison: C4A G82C, self-cleavage 0.0396. Against it:
- A8C A16U — higher, 1.16
- G38U C49G — higher, 0.0739
- G17A U65G — higher, 0.773
- C26U C64G — higher, 1.1
- A77U C84G — higher, 0.403
- C3G C63G — higher, 0.307
- G54C U79G — higher, 0.475
- U27A A42C — higher, 0.0831
- U9A G53A — higher, 1.2
- U9A G74U — higher, 0.585
- U37G G80A — lower, 0.0308
- G53U A78G — higher, 0.739
- C7U C66A — higher, 0.776
- G6C A16U — higher, 0.199
- C41U G54C — higher, 0.63
- C41A C57A — higher, 1.02
- C36A U69C — higher, 0.0426
- C63U U79G — higher, 0.54
- G5A C61G — higher, 0.166
- G28C G73U — higher, 0.154
- A45C U65A — higher, 0.87
- C22U A51U — higher, 0.708
- C61G A77G — higher, 0.831
- G31C C86A — higher, 0.312
- C75A A83C — higher, 0.181
- C4A C75G — the same, 0.0396
- C48U C85G — higher, 0.941
- G35C U79C — higher, 0.132
- C3G C18G — higher, 0.0475
- A51C A71U — higher, 0.892
- G17A G53C — higher, 0.831
- C30U U60C — higher, 0.831
- U12A C48U — higher, 0.277
- G40U G68C — higher, 0.443
- U12G G39C — higher, 0.208
- A8C G50C — higher, 1.04
- C30G G52C — higher, 0.133
- G59U U72C — higher, 0.599
- G6C U69C — higher, 0.172
- G52C G59C — higher, 0.987
- C26G U27A — higher, 0.516
- C22A A45U — higher, 0.233
- G67A A70C — higher, 0.475
- G40C G59A — higher, 0.179
- C24G C58G — higher, 0.108
- C13A U47A — higher, 0.148
- C18G G40C — higher, 0.0852
- C3A U12C — higher, 0.0615
- C21G U69C — higher, 0.104
- C4G C26A — higher, 0.569
- A16G C48A — higher, 0.802
- U69A G73U — higher, 0.494
- C30U G81U — higher, 0.149
- G25A C57G — higher, 0.224
- G1U G11A — higher, 0.364
- C49A C58U — higher, 1.04
- G38A G52U — higher, 0.245
- C75G U79G — higher, 0.0791
- C30G A71U — higher, 0.0875
- G25C A42C — higher, 0.128
- G6U G68A — higher, 0.483
- C57A G82C — higher, 0.298
- U65C G67C — higher, 0.984
- C48U C84G — higher, 0.712
- G1A A83U — lower, 0
- G5U A51G — higher, 0.875
- G31C G68U — higher, 0.233
- G39A A56G — higher, 0.509
- C14A G67A — higher, 0.435
- U27C G55U — higher, 0.426
- U20G C33A — higher, 0.119
- C48A C57U — higher, 0.76
- G31U G80U — higher, 0.0675
- U27C G68A — higher, 0.697
- A16G U20G — higher, 0.145
- C19A A51C — higher, 0.0733
- C13G U47G — higher, 0.151
- A16C G76C — higher, 0.731
- C15U G25C — higher, 0.0723
- G2U G31U — lower, 0.0268
- C7G G67A — higher, 0.128
- G67U C86G — higher, 0.945
- C15U U69A — higher, 1.15
